The test addresses Ostreolysin A6 (Pleurotus ostreatus) (UniProt P83467).
UniProt P83467, sequence (P83467 whole entry): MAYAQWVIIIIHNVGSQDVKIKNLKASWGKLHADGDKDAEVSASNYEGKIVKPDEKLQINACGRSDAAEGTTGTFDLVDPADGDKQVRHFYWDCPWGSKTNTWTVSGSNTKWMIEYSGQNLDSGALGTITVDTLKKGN

The substance Δ48EryB (erylysin B) (natural protein) registered a haemolysis of bovine erythrocytes, aegerolysin/MACPF-protein 12.5/1, 25 °C; against OlyA6/PlyB of 90 % lower.

The record behind these values is paper PMC8310357.
